System: participants with advanced solid tumors
Assay: Phase 1 open label, multi-arm, multi-center study of MK-4830 as monotherapy or in combination with pembrolizumab (NCT03564691): safety and tolerability
Format: in vivo, human
Protocol: A phase 1 open label, multi-arm, multi-center study of an anti-ILT4 antibody (“MK-4830”) as monotherapy or in combination with pembrolizumab for participants with advanced solid tumors has been ongoing (NCT03564691).
At the time of the May 10, 2019 data cutoff, a total of 51 participants had received at least 1 dose of MK-4830. In the ongoing MK-4830 monotherapy phase, MK-4830 monotherapy had reached the maximum planned dose level of 1600 mg. In the ongoing MK-4830 plus pembrolizumab combination phase, MK-4830 dose level had reached a maximum dose of 800 mg.
The target dose limiting toxicity (DLT) rate was not reached in any of the cohorts and the maximum tolerated dose (MTD) was not defined.
The most common study-drug related AEs in all participants were arthralgia (9.8%), fatigue (9.8%), decreased appetite (7.8%), diarrhea (7.8%), and pruritus (7.8%). There was one episode of transient Grade 3 blood pressure increase at the 1600 mg dose level in the MK-4830 monotherapy cohort. There were no Grade 4 or 5 drug-related AEs or SAEs.

[1] = of the total 51 treated participants, preliminary data

Substance: MK-4830: anti-ILT4 antibody; light chain SEQ ID NO:5, heavy chain SEQ ID NO:10 (Table 4)
- episodes of transient Grade 3 blood pressure increase (1600 mg dose level, MK-4830 monotherapy cohort): one episode
- grade of the majority of drug-related AEs (51 treated participants, preliminary data): Grade 1
- Grade 4 or 5 drug-related AEs or SAEs (all 51 treated participants): no
- study-drug related AE: arthralgia (all participants (51 treated)): 9.8%
- study-drug related AE: decreased appetite (all participants (51 treated)): 7.8%
- study-drug related AE: diarrhea (all participants (51 treated)): 7.8%
- study-drug related AE: fatigue (all participants (51 treated)): 9.8%
- study-drug related AE: pruritus (all participants (51 treated)): 7.8%
- target dose limiting toxicity (DLT) rate (any of the cohorts, monotherapy up to 1600 mg, combination with pembrolizumab up to 800 mg, May 10, 2019 data cutoff): not reached
- maximum tolerated dose (MTD) (monotherapy up to 1600 mg, combination with pembrolizumab up to 800 mg, May 10, 2019 data cutoff): not defined
- participants with one or more drug-related AEs (number) [1]: 26
- participants with one or more drug-related AEs (percent) [1]: 51%
